Results reported in patent CN110684105A.

Target: 重组HSP90蛋白 (recombinant HSP90 protein expressed in E. coli BL21 from pET-30a-HSP90) (human) (UniProt P08238)
Assay: indirect ELISA, HSP90 recombinant protein coated at 1 μg/mL, antibody diluted 1:10^3 to 1:10^6, HRP goat anti-mouse

B1: 抗HSP90单克隆抗体 46-2-C9 (anti-HSP90 monoclonal antibody from hybridoma 46-2-C9, purified from mouse ascites) (antibody, V domains shown)
VH: EVQLQQSGPELVKPGASVKISCKASGYSFTGYYMHWVKQSHVKSLEWIGRINPYNGATSYNQNFKDKASLTVDKSSSTAYMELHSLTSEDSAVYYCARSKKYGNYTWFAYWGQGTLVTVSA
VL: DVQMTQSQKFMSTSVGDRVSVTCKASQNVGTNVAWYQQKPGQSPKALIYSASYRYSGVPDRFTGSGSGTDFTLTISNVQSEDLAEYFCQQYNSYIFTFGSGTKLEIKR
B1 showed a 效价 (ELISA titer, dilution factor) (dilution factor) of 100000.
